No end group written: not given here.
Target: T1, NBL1 (AA 1-180) protein (FcTag) (Homo sapiens, UniProt P41271)
T1 construct: NBL1 (AA 1-180) protein (FcTag); purchased SinoBiological (via AntibodiesOnline) BIN2002229
T1 sequence (P41271 17-180): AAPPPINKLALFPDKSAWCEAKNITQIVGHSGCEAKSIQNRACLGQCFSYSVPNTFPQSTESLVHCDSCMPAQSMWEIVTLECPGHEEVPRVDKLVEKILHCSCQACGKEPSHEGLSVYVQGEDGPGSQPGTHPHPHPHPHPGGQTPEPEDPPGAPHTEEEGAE
Experiment: PEPperCHIP Discovery Microarray screening of cyclic peptide binders
Type: binding
Settings: cyclic peptides of common structure S1 with the given SEQ; NBL1 at 10 μg/ml
Text: The peptide target binder discovery screening was done with PEPperCHIP® Discovery Microarrays with 36,040 random peptides with alength of 12 amino acids printed in duplicate (72,080 peptide spots). After peptide synthesis, all peptides were cyclized via a thioetherlinkage between a C-terminal cysteine side chain and an appropriately modified N-terminus. The PEPperCHIP® Discovery Microarrays contained additional myc(EQKLISEEDL, 415 spots) and HA (YPYDVPDYAG, 420 spots) control peptides as specified in the peptide maps of the microarray data files.
Samples: NBL1 (AA 1-180) protein (FcTag) (SinoBiological, AntibodiesOnline BIN2002229) Washing Buffer: PBS, pH 7.4 with 0.005% Tween 20 (2×10 sec after each assay) Blocking Buffer: Rockland blocking buffer MB-070 (30 min before the first assay) Incubation Buffer: Washing buffer with 1% blocking buffer Assay Conditions: Protein concentrations of […] in incubation buffer; incubation for 16 h at 4° C. and shaking at 140 rpm Secondary Antibodies: Mouse natriuretic peptides B DyLight800 antibody (1:5000; Hytest, AntibodiesOnline product ABIN263370), goat anti-human IgG (Fc) DyLight680 (1:5000); 45 min staining in incubation buffer at RT Control Antibodies: Mouse monoclonal anti-HA (12CA5) DyLight680(1:2000), mouse monoclonal anti-HA (12CA5) DyLight800 (1:2000); 45 min staining in incubation buffer at RT Scanner: LI-COR Odyssey Imaging System; scanning offset 0.65 mm, resolution 21 μm, scanning intensities of 7/7 (red=700 nm/green=800 nm)
After 15 min pre-swelling in washing buffer and 30 min in blocking buffer, two PEPperCHIP® Discovery Microarrays were initially incubated with the secondary antibodies mouse natriuretic peptides B DyLight800 (1:5000) and goat anti-human IgG (Fc) DyLight680 (1:5000) as well as with the control antibodies in incubation buffer to analyze background interactions with the 36,040 different random cyclic constrained peptides of the microarrays. Subsequent incubation of the PEPperCHIP® Discovery Microarrays was done with target proteins NBL1 at concentrations of 1 μg/ml and 10 μg/ml in incubation buffer and followed by staining with the secondary antibodies as well as read-out with a LI-COR Odyssey Imaging System at scanning intensity of 7/7 (red/green). The additional HA peptides framing the peptide microarrays were simultaneously stained as internal quality control to confirm the assay quality and the peptide microarray integrity.
A software algorithm breaks down fluorescence intensities of each spot into raw, foreground and background signal, and calculates averaged median foreground intensities and spot-to-spot deviations of spot duplicates. We tolerated a maximum spot-to-spot deviation of 40%, otherwise the corresponding intensity value was zeroed. Based on averaged median foreground intensities, an intensity map was generated and interactions in the peptide map highlighted by an intensity color code with red(NBL1 for high and white for low spot intensities.
To identify the top interactions of the target proteins, the averaged and corrected intensity values were sorted by decreasing spot intensities. We further plotted averaged spot intensities of all assays against the microarray content from left on top to right on bottom of the chip to visualize overall spot intensities and signal-to-noise ratios. For a better data overview, the baselines of the intensity plots were leveled and main responses annotated next to the corresponding signal. The intensity plots were correlated with peptide and intensity maps as well as with visual inspection of the microarray scans to identify peptides that interacted with target proteins NBL1.

| intensity values, 10 μg/ml | Sequence |
| --- | --- |
| 317.5 | ARMRQTHRPVYR |
| 338 | ARQSHRRPGGKR |
| 290 | CHCIHFTHRRLR |
| 216 | DFKQLLLPGRKR |
| 554 | DMAARCVCKRRR |
| 195 | FPQSRGRGKLWR |
| 214 | GDRGCFFIVTFI |
| 192 | GRHLPEASKRFR |
| 249 | KQRSKRMASMKLF |
| 181 | KVALFLANRLFR |
| 190.5 | KVRALRDISYRR |
| 193.5 | LFENCANVCIGL |
| 213 | LRNVVFIWHIRYR |
| 210 | NKQMNHPPRRHR |
| 301.5 | RFNHVTCRTFKR |
| 179.5 | RHGTRYHSRLFR |
| 182.5 | RQNANKAWQKRR |
| 187 | RRRAQPSPMRHK |
| 198 | SRHNYSHWFYRR |
| 489 | TLRCHRHRFR |
| 175 | TYDNYIRYFRIR |
| 189 | VDFGGGWVCFCP |
| 235.5 | VHQCRASRYPRI |
| 189 | WVARDHVNHNRR (not fully specified (C-terminus, bridges); also: cyclized via thioether between C-terminal Cys side chain and modified N-terminus) |
| 445 | YHATGVRWRFLR (not fully specified (C-terminus, bridges); also: cyclized via thioether between C-terminal Cys side chain and modified N-terminus) |
| 197 | YMPSNCCWWWRR (not fully specified (C-terminus, bridges); also: cyclized via thioether between C-terminal Cys side chain and modified N-terminus) |
| 200.5 | YWHKKLYYMRYR (not fully specified (C-terminus, bridges); also: cyclized via thioether between C-terminal Cys side chain and modified N-terminus) |

The remaining lines, values behind:

| Sequence | intensity values, 10 μg/ml |
| --- | --- |
| DSRKFFYRGNRR | 328 |
| FDWRISQRMRRR | 448 |
| FPMCQKVPFVRR | 174.5 |
| FWFHLKYWAWRR | 215 |
| HTWPYALTQKRR | 176.5 |
| IRHSDRVDRYSR | 172 |
| IYFYSCSVPGMY | 233 |
| LGPAACFTSEPV | 212.5 |
| LRLFKISRNFPR | 177 |
| LVMWHRHFALRR | 185 |
| MFFRPFKGHGRR | 251.5 |
| NCYHMVYYLIIL | 185 |
| RFTYSPTQRAYR | 186 |
| RKKDPRAYDRFR | 294.5 |
| RPRHVFKLYGRL | 205 |
| RYNQSIRVIIGR | 234 |
| SQKMLRRGGMIRK | 236.5 |
| WVRIRLSRRQFR (not fully specified (C-terminus, bridges); also: cyclized via thioether between C-terminal Cys side chain and modified N-terminus) | 235 |
| YGSHYYWNHLRR (not fully specified (C-terminus, bridges); also: cyclized via thioether between C-terminal Cys side chain and modified N-terminus) | 185 |
| YHHKPQRQNRGR (not fully specified (C-terminus, bridges); also: cyclized via thioether between C-terminal Cys side chain and modified N-terminus) | 283 |
| YWTKGLLWRNRR (not fully specified (C-terminus, bridges); also: cyclized via thioether between C-terminal Cys side chain and modified N-terminus) | 323 |
| YYRIHHQRRGRS (not fully specified (C-terminus, bridges); also: cyclized via thioether between C-terminal Cys side chain and modified N-terminus) | 452 |
